Test results reported in patent US20250090583A1.

How the values were obtained:
[1] = molecular target: MART-1 peptide … (ELA) presented by HLA-A2 on peptide-pulsed T2 cells; assay: cell-based or functional assay
[2] = molecular target: CD3 of the TCR-CD3 complex on human T cells (human) (UniProt P07766); assay: cell-based or functional assay

| NFAT-GFP in Jurkat cells co-cultured overnight with ELA-pulsed T2 cells, against WT Jkt-DMF5 [1] [% reduction] | NFAT-GFP in Jkt-DMF5FATADALN cells co-cultured with Raji (CD19+) cells and blinatumomab, against WT Jkt-DMF5 [2] [% reduction] | NFAT-GFP in Jkt-DMF5GGGSGSG cells co-cultured with Raji (CD19+) cells and blinatumomab, against WT Jkt-DMF5 [2] [% reduction] | Substance |
| --- | --- | --- | --- |
| 50 | – | – | DMF5 TCR with alpha chain connecting peptide motif mutated to GGGSGSG |
| – | < 80 | < 80 | blinatumomab (bispecific antibody) |
